Test results reported in patent US20190023791A1 (GlaxoSmithKline, published 2019).
Where “and” joins values, the source holds several entries; their conditions need not be identical. Equal values may be shown once.

Key:
[1] = biological target: T1, human OX40 on cells (activated human CD4+ T cells, stimulated PBMC, lymphocytes in whole blood) (human, UniProt P43489 29-277); test: unstimulated human whole-blood binding assay, lymphocytes
T1 construct: whole, on cells; also called cell-surface OX40; human OX40 receptor on CD4+ T cells
T1 sequence (looked up): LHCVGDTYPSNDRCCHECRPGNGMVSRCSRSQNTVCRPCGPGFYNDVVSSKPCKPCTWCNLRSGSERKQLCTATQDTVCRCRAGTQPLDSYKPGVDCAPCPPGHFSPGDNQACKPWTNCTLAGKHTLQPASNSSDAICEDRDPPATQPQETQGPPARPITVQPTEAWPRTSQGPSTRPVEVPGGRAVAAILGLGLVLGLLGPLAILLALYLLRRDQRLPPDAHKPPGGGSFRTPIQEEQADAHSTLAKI

[2] = biological target: T1, human OX40 on cells (activated human …); test: binding to stimulated human PBMC; stimulated human PBMC; lower end of range
[3] = biological target: T2, cynomolgus monkey OX40 on cells (activated cynomolgus monkey CD4+ T cells, OX40+ cells in peripheral blood) (cynomolgus monkey); test: binding to activated cynomolgus monkey CD4+ T cells; activated cynomolgus monkey CD4+ T cells
T2 construct: whole, on cells; also called monkey OX40 receptor on CD4+ T cells

[4] = biological target: T1, human OX40 on cells (activated human …); test: binding to activated human CD4+ T cells; activated human CD4+ T cells
[5] = biological target: T1, human OX40 on cells (activated human …); test: binding to stimulated human PBMC; stimulated human PBMC; upper end of range
[6] = biological target: T3, recombinant OX40 extracellular domain from humans (human, UniProt P43489 29-214); test: binding to recombinant OX40 extracellular domain, method not stated; recombinant human OX40 extracellular domain
T3 construct: extracellular domain; also called human OX40; hOX40
T3 sequence (looked up): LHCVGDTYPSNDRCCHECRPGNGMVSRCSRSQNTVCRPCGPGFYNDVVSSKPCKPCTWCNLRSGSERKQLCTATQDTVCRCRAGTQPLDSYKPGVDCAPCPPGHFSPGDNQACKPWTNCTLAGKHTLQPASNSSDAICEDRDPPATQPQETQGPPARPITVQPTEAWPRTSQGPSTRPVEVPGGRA

[7] = biological target: T1, human OX40 on cells (activated human …); test: cell-based or functional assay
[8] = biological target: T2, cynomolgus monkey OX40 on cells …; test: cell-based or functional assay
[9] = biological target: T4, recombinant OX40 extracellular domain from cynomolgus monkeys (cynomolgus monkey); test: binding to recombinant OX40 extracellular domain, method not stated
T4 construct: extracellular domain; also called cynomolgus monkey OX40

EC50 [1]: 1.45 µg/mL
EC50 [2]: ≥ 0.1 µg/mL
EC50 [3]: 0.35 µg/mL
EC50 [4]: 0.3 µg/mL
EC50 [5]: ≤ 0.3 µg/mL
Kd [6]: 4.9 nM
anti-CD3 induced proliferation of activated human CD4+ T cells, mean EC50 [7]: 0.19 µg/mL and 1.3 nM
proliferation of immobilized anti-CD3 activated cynomolgus monkey CD4+ T cells, mean EC50 [8]: 0.72 µg/mL and 4.8 nM
Kd [9]: 408 nM
B1: ANTIBODY 106-222 (antibody, human IgG1, kappa, V domains shown)
VH: QVQLVQSGSELKKPGASVKVSCKASGYTFTDYSMHWVRQAPGQGLKWMGWINTETGEPTYADDFKGRFVFSLDTSVSTAYLQISSLKAEDTAVYYCANPYYDYVSYYAMDYWGQGTTVTVSS
VL: DIQMTQSPSSLSASVGDRVTITCKASQDVSTAVAWYQQKPGKAPKLLIYSASYLYTGVPSRFSGSGSGTDFTFTISSLQPEDIATYYCQQHYSTPRTFGQGTKLEIKR
notes: also called humanized wild-type IgG1 anti-OX40 agonistic mAb
